The values that follow come from IntAct's records for PubMed 27462807.

Experiment [1] addresses tp53b_human TP53BP1 (UniProt Q12888).
Experiment [2] shares this target. This is another data set of the same source.

Chain of tp53b_human TP53BP1 (Q12888 whole entry): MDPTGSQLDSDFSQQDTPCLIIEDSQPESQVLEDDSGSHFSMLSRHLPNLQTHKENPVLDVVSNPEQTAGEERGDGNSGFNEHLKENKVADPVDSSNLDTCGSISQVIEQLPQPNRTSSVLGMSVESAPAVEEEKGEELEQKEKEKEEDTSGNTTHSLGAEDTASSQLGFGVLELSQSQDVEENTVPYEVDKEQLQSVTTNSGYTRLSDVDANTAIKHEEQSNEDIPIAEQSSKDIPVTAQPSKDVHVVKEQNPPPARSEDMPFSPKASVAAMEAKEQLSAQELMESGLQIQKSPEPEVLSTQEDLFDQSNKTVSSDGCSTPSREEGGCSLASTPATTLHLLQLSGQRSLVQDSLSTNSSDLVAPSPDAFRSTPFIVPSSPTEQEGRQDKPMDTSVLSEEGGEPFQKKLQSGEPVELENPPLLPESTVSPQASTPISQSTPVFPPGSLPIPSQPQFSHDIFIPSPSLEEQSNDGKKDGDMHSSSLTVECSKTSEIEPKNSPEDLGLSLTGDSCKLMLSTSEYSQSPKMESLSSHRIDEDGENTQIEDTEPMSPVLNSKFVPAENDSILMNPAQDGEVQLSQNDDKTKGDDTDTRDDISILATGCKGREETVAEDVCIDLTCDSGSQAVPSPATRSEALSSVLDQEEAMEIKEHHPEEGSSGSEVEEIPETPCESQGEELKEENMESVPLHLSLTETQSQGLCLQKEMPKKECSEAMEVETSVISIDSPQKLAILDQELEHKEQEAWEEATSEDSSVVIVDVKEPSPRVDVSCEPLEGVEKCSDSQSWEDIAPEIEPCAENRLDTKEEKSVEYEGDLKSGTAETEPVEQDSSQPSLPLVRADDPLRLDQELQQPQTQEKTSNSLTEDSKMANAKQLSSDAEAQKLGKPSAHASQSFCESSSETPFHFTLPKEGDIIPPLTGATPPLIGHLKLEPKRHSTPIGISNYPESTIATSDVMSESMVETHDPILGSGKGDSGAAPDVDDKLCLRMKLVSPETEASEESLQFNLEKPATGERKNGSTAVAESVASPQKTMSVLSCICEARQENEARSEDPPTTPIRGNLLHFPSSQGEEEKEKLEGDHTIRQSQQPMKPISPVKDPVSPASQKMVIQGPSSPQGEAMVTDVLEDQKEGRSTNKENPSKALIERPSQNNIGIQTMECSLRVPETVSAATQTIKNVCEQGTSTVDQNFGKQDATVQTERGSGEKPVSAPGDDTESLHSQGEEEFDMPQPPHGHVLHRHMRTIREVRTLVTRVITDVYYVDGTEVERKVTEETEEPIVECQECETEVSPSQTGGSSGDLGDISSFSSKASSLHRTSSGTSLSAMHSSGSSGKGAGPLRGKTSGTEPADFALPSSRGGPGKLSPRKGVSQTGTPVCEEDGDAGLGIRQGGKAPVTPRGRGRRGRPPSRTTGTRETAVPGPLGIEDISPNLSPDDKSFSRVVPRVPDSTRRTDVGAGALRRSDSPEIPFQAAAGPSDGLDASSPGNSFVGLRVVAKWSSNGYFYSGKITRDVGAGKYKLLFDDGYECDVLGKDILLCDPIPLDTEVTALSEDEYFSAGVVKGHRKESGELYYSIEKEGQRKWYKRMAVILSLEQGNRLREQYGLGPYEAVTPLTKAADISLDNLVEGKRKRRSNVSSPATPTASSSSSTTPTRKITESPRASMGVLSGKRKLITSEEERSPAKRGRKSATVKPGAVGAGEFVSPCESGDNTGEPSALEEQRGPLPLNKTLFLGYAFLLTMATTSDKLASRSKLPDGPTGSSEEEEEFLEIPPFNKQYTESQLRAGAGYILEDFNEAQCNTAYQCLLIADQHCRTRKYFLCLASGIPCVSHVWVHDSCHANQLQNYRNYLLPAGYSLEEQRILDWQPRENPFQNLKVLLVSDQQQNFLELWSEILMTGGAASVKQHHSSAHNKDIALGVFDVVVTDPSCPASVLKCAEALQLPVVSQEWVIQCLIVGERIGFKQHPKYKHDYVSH

On to “Histone H2B type 1-C/E/F/G/I (Homo sapiens) (from UniProt P62807) N85C”, for which the “effect of a mutation on the interaction” value with tp53b_human TP53BP1 [1] is recorded as “with no effect”.

“Histone H2B type 1-C/E/F/G/I (Homo sapiens) (from UniProt P62807) E106C”: the “effect of a mutation on the interaction” value with tp53b_human TP53BP1 [2] is reported as “with no effect”.
